Experimental data as given in patent publication US20260097129A1 (KOOKMIN UNIVERSITY INDUSTRY ACADEMY COOPERATION FOUNDATION, published 2026).

B1: K101.1-DM1 (antibody, V domains shown)
VH: EVQLLESGGGLVQPGGSLRLSCAASGFTFSNYSMSWVRQAPGKGLEWVSGIYYGSGNKYYADSVKGRFTISRDNSKNTLYLQMNSLRAEDTAVYYCAKNLASFDYWGQGTLVTVSS
VL: QSVLTQPPSASGTPGQRVTISCSGSSSNIGSNSVNWYQQLPGTAPKLLIYSNSHRPSGVPDRFSGSKSGTSASLAISGLRSEDEADYYCGTWDSSLSGYVFGGGTKLTVL
modifications: SMCC-DM1 conjugated to lysine residues of the antibody (positions not stated)
B2: K101.3-DM1 (antibody, V domains shown)
VH: EVQLLESGGGLVQPGGSLRLSCAASGFTFSGYAMSWVRQAPGKGLEWVSAISHGGSSKYYADSVKGRFTISRDNSKNTLYLQMNSLRAEDTAVYYCAKDLLSPLQSIGSYDDAMDVWGQGTLVTVSS
VL: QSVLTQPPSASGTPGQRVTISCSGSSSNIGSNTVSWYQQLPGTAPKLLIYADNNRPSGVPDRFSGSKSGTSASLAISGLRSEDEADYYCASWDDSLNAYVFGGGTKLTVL
modifications: SMCC-DM1 conjugated to lysine residues of the antibody (positions not stated)

Biological target: GRP94 on human CRC cells (HCT116, LoVo, HT29, HCT8) (human, UniProt P14625 22-803)
Assay: cell-based or functional assay

Chain of GRP94 on human CRC cells (HCT116, LoVo, HT29, HCT8) (P14625 22-803): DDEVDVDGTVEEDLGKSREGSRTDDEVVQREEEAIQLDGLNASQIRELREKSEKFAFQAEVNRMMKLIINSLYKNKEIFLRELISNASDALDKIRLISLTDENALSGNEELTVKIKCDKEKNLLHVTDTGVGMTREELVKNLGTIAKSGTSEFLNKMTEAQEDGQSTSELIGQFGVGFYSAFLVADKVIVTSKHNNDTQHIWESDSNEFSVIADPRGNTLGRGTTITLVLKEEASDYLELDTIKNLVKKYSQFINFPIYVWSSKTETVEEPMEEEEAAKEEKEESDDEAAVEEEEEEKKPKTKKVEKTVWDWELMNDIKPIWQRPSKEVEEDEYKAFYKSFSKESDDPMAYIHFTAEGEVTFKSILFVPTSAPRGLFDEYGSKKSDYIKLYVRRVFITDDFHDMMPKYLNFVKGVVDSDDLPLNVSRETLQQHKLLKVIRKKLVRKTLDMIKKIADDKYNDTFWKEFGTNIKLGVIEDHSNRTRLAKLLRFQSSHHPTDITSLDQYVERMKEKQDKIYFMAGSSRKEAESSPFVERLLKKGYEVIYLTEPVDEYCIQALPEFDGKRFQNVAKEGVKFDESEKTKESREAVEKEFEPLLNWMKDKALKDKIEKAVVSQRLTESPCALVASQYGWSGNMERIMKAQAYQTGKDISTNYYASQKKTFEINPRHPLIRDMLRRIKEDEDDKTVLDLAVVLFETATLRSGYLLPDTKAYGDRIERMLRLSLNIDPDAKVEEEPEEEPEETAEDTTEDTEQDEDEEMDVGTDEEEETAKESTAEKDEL

Binder | IC50 of cell viability (CCK-8), HCT8 cells [nM] | IC50 of cell viability (CCK-8), HCT116 cells [nM] | IC50 of cell viability (CCK-8), HT29 cells [nM] | IC50 of cell viability (CCK-8), LoVo cells [nM]
B1 | 78.8 | 34.9 | 77.7 | 52.5
B2 | 44.9 | 57.8 | 48.3 | 35.5
